What was measured:
FrmR [1] = target: T1, FrmR (Salmonella enterica, UniProt A0A0H3NLH8, P2S); assay: biochemical
T1 construct: gene SL1344_1558

FrmR [2] = target: T2, FrmR (Salmonella enterica, UniProt A0A0H3NLH8, C35A); assay: biochemical
T2 construct: gene SL1344_1558

RcnR [3] = target: RcnR (Salmonella enterica, UniProt Q7CPV3); assay: biochemical
FrmR [4] = target: T3, FrmR (Salmonella enterica, UniProt A0A0H3NLH8); assay: biochemical
T3 construct: gene SL1344_1558

[5] = target: FrmR^E64H (Salmonella enterica serovar Typhimurium FrmR with Glu64 to His) (Salmonella enterica serovar Typhimurium strain SL1344); assay: crystal structure; FrmR E64H 0.5 mM in 400 mM NaCl, 1 mM EDTA, 1 mM DTT, 10 mM HEPES pH 7.0; crystals in 20 mM NaCl, 23% (w/v) PEG 4000, 10 mM BisTris pH 6.5, hanging drop vapor diffusion at 20 °C; one homotetramer in the asymmetric unit; 2.19 Å
RcnR [6] = target: T4, RcnR (Salmonella enterica serovar Typhimurium …, UniProt Q7CPV3 1-90); assay: fluorescence anisotropy; 5 mM EDTA, apo; 10 mM HEPES pH 7.0, 60 mM NaCl, 240 mM KCl, 5 mM EDTA (or 5 uM NiCl2/CoCl2), 25 C, 10 nM DNA; anaerobic except FrmRC35A; Kd per tetramer (two nondissociable tet); settings: protein: recombinant; chain copies: 8; label: 5'-HEX on strand 1; blunt
T4 sequence: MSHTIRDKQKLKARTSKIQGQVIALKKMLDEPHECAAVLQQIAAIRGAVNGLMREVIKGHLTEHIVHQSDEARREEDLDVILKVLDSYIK

RcnRS2P = RcnRS2P (Salmonella enterica serovar Typhimurium …, UniProt Q7CPV3 1-90, S2P); assay: as above; settings: protein: recombinant; chain copies: 8; label: 5'-HEX on strand 1; blunt
FrmR [7] = target: FrmR (Salmonella enterica serovar Typhimurium …, UniProt A0A0H3NLH8 2-91); assay: fluorescence anisotropy; 800 uM GSH, 5 mM EDTA; 10 mM HEPES pH 7.0, 60 mM NaCl, 240 mM KCl, 5 mM EDTA (or 5 uM NiCl2/CoCl2), 25 C, 10 nM DNA; anaerobic except FrmRC35A; Kd per tetramer (two nondissociable tet); settings: protein: recombinant; chain copies: 8
FrmRP2S = FrmRP2S (Salmonella enterica serovar Typhimurium …, UniProt A0A0H3NLH8 1-91, P2S); assay: fluorescence anisotropy; 5 mM EDTA, apo; 10 mM HEPES pH 7.0, 60 mM NaCl, 240 mM KCl, 5 mM EDTA (or 5 uM NiCl2/CoCl2), 25 C, 10 nM DNA; anaerobic except FrmRC35A; Kd per tetramer (two nondissociable tet); settings: protein: recombinant; chain copies: 8
FrmRE64H = FrmRE64H (Salmonella enterica serovar Typhimurium …, UniProt A0A0H3NLH8 2-91, E64H); assay: as above; settings: protein: recombinant; chain copies: 8

Q: Which results are given for C=O [formaldehyde]?
A: Kd (FrmR [1]): > 50000 nM; Kd (FrmR [2]): > 100000 nM; Kd (RcnR [3]): > 100000 nM; Kd (FrmR [4]): 10000 to 20000 nM

Q: With “FrmR^E64H (Salmonella enterica serovar Typhimurium FrmR with Glu64 to His) (natural protein)” as the molecule, how does the stoichiometry N [5] read?
A: 4

B1: rcnRAPro (dsDNA)
DNA 1: TACTCCCCCCCAGTATAGAATACTACCCCCCAGTA
DNA 2: TACTGGGGGGTAGTATTCTATACTGGGGGGGAGTA
Q: With B1 as the molecule, how does the Kd (RcnR [6]) read?
A: 150 nM

Q: What about the Kd (RcnRS2P) of the same molecule?
A: 160 nM

B2: frmRAPro (dsDNA)
DNA 1: TTCTGATAGTATACCCCCCTATAGTATATGGAG
DNA 2: CTCCATATACTATAGGGGGGTATACTATCAGAA
Q: B2 was tested. Which binding signal (FrmR [7]) did it give?
A: ~2.5 fold tighter Kd vs apo

Q: What about the Kd (FrmRP2S) of the same molecule?
A: 150 nM

Q: Does B2 bind (FrmRE64H)?
A: binds
